# Reference: patent US20260184748A1 (University of Pennsylvania, published 2026)
# Where no end group is shown, it is not given here.
# T1: MRGPRX2 (UniProt Q96LB1 1-330)
# T1 sequence (looked up): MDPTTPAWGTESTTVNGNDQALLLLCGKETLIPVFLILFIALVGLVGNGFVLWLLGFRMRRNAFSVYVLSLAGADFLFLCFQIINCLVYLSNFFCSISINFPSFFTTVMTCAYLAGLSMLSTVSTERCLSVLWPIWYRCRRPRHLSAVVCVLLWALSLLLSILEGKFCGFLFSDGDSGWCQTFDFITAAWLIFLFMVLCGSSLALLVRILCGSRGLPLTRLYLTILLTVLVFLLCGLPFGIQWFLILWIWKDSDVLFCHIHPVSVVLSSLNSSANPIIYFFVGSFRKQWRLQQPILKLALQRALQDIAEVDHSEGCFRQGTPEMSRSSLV
# T2: EDNRB (UniProt P24530 27-442)
# T2 sequence (looked up): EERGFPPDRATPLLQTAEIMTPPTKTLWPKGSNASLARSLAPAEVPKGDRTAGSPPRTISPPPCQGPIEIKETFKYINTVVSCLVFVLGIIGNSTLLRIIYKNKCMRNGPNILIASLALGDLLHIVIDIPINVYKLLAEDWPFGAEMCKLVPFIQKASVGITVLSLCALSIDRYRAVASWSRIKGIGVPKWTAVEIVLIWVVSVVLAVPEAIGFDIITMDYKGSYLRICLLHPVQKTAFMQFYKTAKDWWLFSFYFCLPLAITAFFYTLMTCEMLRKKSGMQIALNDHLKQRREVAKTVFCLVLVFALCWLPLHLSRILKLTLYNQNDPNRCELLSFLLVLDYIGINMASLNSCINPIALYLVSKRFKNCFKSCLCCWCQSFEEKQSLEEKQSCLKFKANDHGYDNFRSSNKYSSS
# T3: VIPR1 (UniProt P32241 31-457)
# T3 sequence (looked up): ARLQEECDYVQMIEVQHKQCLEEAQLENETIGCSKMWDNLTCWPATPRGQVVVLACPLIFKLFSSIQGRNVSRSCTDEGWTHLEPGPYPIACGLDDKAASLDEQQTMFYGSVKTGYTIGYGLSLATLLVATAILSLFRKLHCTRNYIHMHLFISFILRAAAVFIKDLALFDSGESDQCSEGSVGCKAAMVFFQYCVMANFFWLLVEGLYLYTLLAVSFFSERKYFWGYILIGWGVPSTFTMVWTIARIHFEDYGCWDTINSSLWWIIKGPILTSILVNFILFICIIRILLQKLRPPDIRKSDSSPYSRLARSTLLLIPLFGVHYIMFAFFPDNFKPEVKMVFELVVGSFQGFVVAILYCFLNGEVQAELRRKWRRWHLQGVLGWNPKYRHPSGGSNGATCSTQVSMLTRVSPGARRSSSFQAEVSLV
# T4: CCR1 (UniProt P32246 1-355)
# T4 sequence (looked up): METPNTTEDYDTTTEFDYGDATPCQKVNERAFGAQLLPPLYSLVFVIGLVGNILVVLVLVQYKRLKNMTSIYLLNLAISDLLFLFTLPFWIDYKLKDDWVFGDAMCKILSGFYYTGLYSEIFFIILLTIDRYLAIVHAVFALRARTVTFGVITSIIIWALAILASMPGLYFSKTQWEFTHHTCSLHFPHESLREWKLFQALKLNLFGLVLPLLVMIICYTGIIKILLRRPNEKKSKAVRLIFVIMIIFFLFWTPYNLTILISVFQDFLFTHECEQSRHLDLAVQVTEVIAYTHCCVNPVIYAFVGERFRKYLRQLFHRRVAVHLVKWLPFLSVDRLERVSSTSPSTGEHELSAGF
# T5: CCKAR (UniProt P32238 1-428)
# T5 sequence (looked up): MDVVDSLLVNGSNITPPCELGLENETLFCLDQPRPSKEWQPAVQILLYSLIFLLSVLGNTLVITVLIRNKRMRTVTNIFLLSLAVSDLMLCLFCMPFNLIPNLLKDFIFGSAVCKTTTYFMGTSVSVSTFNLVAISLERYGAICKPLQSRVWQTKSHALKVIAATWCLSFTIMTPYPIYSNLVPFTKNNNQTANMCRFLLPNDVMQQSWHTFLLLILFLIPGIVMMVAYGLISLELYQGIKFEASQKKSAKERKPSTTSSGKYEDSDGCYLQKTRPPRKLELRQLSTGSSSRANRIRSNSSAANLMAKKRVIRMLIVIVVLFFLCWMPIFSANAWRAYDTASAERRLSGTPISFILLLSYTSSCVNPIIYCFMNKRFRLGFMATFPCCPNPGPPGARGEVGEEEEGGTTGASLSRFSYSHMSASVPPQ
# T6: CMKLR1 (UniProt Q99788 1-373, limits assumed)
# T6 sequence (looked up): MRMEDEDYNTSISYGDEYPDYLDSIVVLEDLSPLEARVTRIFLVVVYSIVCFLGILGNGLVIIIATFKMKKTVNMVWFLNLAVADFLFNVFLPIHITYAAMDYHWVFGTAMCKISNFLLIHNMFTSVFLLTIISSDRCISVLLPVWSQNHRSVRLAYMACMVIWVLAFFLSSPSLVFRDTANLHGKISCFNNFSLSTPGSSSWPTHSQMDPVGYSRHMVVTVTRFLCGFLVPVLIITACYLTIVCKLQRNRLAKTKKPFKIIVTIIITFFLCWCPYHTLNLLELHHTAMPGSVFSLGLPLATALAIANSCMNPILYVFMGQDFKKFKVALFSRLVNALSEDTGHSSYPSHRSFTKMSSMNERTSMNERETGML
# Key:
# Assay in all cases: cell-based or functional assay
# [1] = biological target: HTR1E (UniProt P28566 1-365)
# [2] = biological target: TACR1 (UniProt P25103 1-407)
# [3] = biological target: T1, MRGPRX2
# [4] = biological target: T2, EDNRB
# [5] = biological target: T3, VIPR1
# [6] = biological target: T4, CCR1
# [7] = biological target: T5, CCKAR
# [8] = biological target: T6, CMKLR1
# [9] = biological target: CCR5 (UniProt P51681 1-352)
# CCR5, sequence (P51681 whole entry): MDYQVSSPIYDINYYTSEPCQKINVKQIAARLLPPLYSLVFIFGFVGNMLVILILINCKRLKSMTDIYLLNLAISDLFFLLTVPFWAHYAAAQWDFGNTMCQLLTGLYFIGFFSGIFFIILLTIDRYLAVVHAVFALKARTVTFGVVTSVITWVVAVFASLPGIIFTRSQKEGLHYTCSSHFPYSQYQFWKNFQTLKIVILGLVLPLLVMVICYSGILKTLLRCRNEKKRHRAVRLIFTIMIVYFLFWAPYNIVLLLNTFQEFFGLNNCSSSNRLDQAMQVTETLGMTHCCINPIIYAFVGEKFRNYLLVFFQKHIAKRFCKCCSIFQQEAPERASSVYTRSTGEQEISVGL
# TACR1, sequence (P25103 whole entry): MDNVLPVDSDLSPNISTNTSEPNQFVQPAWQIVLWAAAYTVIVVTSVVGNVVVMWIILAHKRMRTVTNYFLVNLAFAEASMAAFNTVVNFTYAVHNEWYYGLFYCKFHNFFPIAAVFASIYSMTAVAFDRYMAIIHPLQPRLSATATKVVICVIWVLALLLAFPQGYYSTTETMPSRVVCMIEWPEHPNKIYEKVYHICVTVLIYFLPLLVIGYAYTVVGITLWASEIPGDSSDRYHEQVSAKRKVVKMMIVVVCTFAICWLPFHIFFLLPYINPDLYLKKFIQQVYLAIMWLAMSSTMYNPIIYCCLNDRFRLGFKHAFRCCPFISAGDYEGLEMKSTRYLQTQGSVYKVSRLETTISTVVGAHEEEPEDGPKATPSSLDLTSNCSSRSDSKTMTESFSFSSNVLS
# HTR1E, sequence (P28566 whole entry): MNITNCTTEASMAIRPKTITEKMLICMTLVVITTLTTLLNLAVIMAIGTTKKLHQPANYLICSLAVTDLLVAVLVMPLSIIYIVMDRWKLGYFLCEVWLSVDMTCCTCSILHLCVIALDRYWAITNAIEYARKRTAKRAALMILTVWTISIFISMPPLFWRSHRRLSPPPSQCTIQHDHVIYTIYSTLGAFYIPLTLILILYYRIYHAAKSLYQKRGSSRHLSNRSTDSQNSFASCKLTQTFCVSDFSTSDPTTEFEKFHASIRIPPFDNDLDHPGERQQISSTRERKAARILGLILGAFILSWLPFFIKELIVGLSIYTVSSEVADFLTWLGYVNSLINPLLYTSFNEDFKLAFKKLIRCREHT
binder,measurement,setting,value
"QATVGDVNTDRPGLLDLK (also: synthesised on Rink amide resin, C-terminal amide not given here outright) [octadecaneuropeptide (ODN)]","% Activity, arrestin, antagonist mode, 2.5 uM",[1],-3.8%
same,"% Activity, arrestin, antagonist mode, 2.5 uM",[2],-17.6%
same,"% Activity, arrestin, antagonist mode, 2.5 uM",[3],-23.5%
same,"% Activity, arrestin, antagonist mode, 2.5 uM",[4],-9.9%
same,"% Activity, arrestin, antagonist mode, 2.5 uM",[5],-11.6%
same,"% Activity, arrestin, antagonist mode, 2.5 uM",[6],-5.4%
same,"% Activity, arrestin, antagonist mode, 2.5 uM",[7],-17.2%
same,"% Activity, arrestin, antagonist mode, 2.5 uM",[8],-18.3%
same,"% Activity, arrestin, antagonist mode, 2.5 uM",[9],-16.1%
